Measurements as given in US20240392004A1 (IMMUNOWAKE, published 2024).
Positions count from the first letter of the chain named. In names and notes the source's numbering stands.

T1: mouse PD-1 (mouse, UniProt Q02242 25-167, limits assumed)
T1 construct: also called mPD-1
T1 sequence (looked up): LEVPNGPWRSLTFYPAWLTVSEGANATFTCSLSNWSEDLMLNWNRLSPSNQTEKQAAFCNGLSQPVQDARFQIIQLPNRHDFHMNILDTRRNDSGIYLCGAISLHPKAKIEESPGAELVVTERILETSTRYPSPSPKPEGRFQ

B1: anti-PD-1 antibody HC-CDR3(N99G) (antibody, V domains shown)
VH: QVQLVESGGGVVQPGRSLRLDCKASGITFSNSGMHWVRQAPGKGLEWVAVIWYDGSKRYYADSVKGRFTISRDNSKNTLFLQMNSLRAEDTAVYYCATGDDYWGQGTLVTVSS
VL: EIVLTQSPATLSLSPGERATLSCRASQSVSSYLAWYQQKPGQAPRLLIYDASNRATGIPARFSGSGSGTDFTLTISSLEPEDFAVYYCQQSSNWPRTFGQGTKVEIKR
notes: constant parts as m82
B2: IL-12(E59A/F60A)/anti-PD-1(D100N) (antibody)
light: not shown
heavy: QVQLVESGGGVVQPGRSLRLDCKASGITFSNSGMHWVRQAPGKGLEWVAVIWYDGSKRYYADSVKGRFTISRDNSKNTLFLQMNSLRAEDTAVYYCATNNDYWGQGTLVTVSSASTKGPSVFPLAPSSKSTSGGTAALGCLVKDYFPEPVTVSWNSGALTSGVHTFPAVLQSSGLYSLSSVVTVPSSSLGTQTYICNVNHKPSNTKVDKKVEPKSCDKPGSGIWELKKDVYVVELDWYPDAPGEMVVLTCDTPEEDGITWTLDQSSEVLGSGKTLTIQVKAAGDAGQYTCHKGGEVLSHSLLLLHKKEDGIWSTDILKDQKEPKNKTFLRCEAKNYSGRFTCWWLTTISTDLTFSVKSSRGSSDPQGVTCGAATLSAERVRGDNKEYEYSVECQEDSACPAAEESLPIEVMVDAVHKLKYENYTSSFFIRDIIKPDPPKNLQLKPLKNSRQVEVSWEYPDTWSTPHSYFSLTFCVQVQGKSKREKKDRVFTDKTSATVICRKNASISVRAQDRYYSSSWSEWASVPCSGGGGSGGGGSGGGGSGGGGSGRNLPVATPDPGMFPCLHHSQNLLRAVSNMLQKARQTLEFYPCTSEEIDHEDITKDKTSTVEACLPLELTKNESCLNSRETSFITNGSCLASRKTSFMMALCLSSIYEDLKMYQVEFKTMNAKLLMDPKRQIFLDQNMLAVIDELMQALNFNSETVPQKSSLEEPDFYKTKIKLCILLHAFRIRAVTIDRVMSYLNASDKTHTCPPCPAPEDEGGPSVFLFPPKPKDTLMISRTPEVTCVVVDVSHEDPEVKFNWYVDGVEVHNAKTKPREEQYNSTYRVVSVLTVLHQDWLNGKEYKCKVSNKALPAPIEKTISKAKGQPREPQVYVYPPSREEMTKNQVSLTCLVKGFYPSDIAVEWESNGQPENNYKTTPPVLDEDGSFALVSKLTVDKSRWQQGNVFSCSVMHEALHNHYTQKSLSLSPGK
heavy (part 1 of 2): QVQLVESGGGVVQPGRSLRLDCKASGITFSNSGMHWVRQAPGKGLEWVAVIWYDGSKRYYADSVKGRFTISRDNSKNTLFLQMNSLRAEDTAVYYCATNNDYWGQGTLVTVSSAS
heavy (part 2 of 2): EPKSCDKTHTCPPCPAPEKKGGPSVFLFPPKPKDTLMISRTPEVTCVVVDVSHEDPEVKFNWYVDGVEVHNAKTKPREEQYNSTYRVVSVLTVLHQDWLNGKEYKCKVSNKALPAPIEKTISKAKGQPREPQVYVLPPSREEMTKNQVSLLCLVKGFYPSDIAVEWESNGQPENRYMTWPPVLDSDGSFFLYSKLTVDKSRWQQGNVFSCSVMHEALHNHYTQKSLSLSPGK
B3: IL-12(E59A/F60A)/anti-PD-1(N99G) (antibody)
light: not shown
heavy: not shown
heavy (part 1 of 2): B2 heavy (part 1 of 2) with N99G, N100D
heavy (part 2 of 2): B2 heavy (part 2 of 2)
B4: IL-12(E59A/F60A)/anti-PD-1(D100G) (antibody)
light: not shown
heavy: B2 heavy with N100G
heavy (part 1 of 2): B2 heavy (part 1 of 2) with N100G
heavy (part 2 of 2): B2 heavy (part 2 of 2)
B5: IL-12(E59A/F60A)/anti-PD-1(D100R) (antibody)
light: not shown
heavy: B2 heavy with N100R
heavy (part 1 of 2): B2 heavy (part 1 of 2) with N100R
heavy (part 2 of 2): B2 heavy (part 2 of 2)
B6: PD-L2(mut2)-Fc, S58V (Fc fusion)
chain 1: LFTVTVPKELYIIEHGSNVTLECNFDTGSHVNLGAITAVLQKVENDTSPHRERATLLEEQLPLGKASFHIPQVQVRDEGQYQCIIIYGVAWDYKYLTLKVKASYRKINTHILKVPETDEVELTCQATGYPLAEVSWPNVSVPANTSHSRTPEGLYQVTSVLRLKPPPGRNFSCVFWNTHVRELTLASIDLQSQMEPRTHPTGGGGSGGGDKTHTCPPCPAPEDEGGPSVFLFPPKPKDTLMISRTPEVTCVVVDVSHEDPEVKFNWYVDGVEVHNAKTKPREEQYNSTYRVVSVLTVLHQDWLNGKEYKCKVSNKALPAPIEKTISKAKGQPREPQVYVYPPSREEMTKNQVSLTCLVKGFYPSDIAVEWESNGQPENNYKTTPPVLDEDGSFALVSKLTVDKSRWQQGNVFSCSVMHEALHNHYTQKSLSLSPGK
chain 2: B6 chain 1 with D223K, E224K, Y340L, T355L, N379R, K381M, T383W, E389S, A394F, V396Y
notes: also called PD-L2(S58V)
B7: PD-L2(mut4)-Fc, T56V/S58V/Q60L (Fc fusion)
chain 1: B6 chain 1 with T37V, Q41L
chain 2: LFTVTVPKELYIIEHGSNVTLECNFDTGSHVNLGAIVAVLLKVENDTSPHRERATLLEEQLPLGKASFHIPQVQVRDEGQYQCIIIYGVAWDYKYLTLKVKASYRKINTHILKVPETDEVELTCQATGYPLAEVSWPNVSVPANTSHSRTPEGLYQVTSVLRLKPPPGRNFSCVFWNTHVRELTLASIDLQSQMEPRTHPTGGGGSGGGDKTHTCPPCPAPEKKGGPSVFLFPPKPKDTLMISRTPEVTCVVVDVSHEDPEVKFNWYVDGVEVHNAKTKPREEQYNSTYRVVSVLTVLHQDWLNGKEYKCKVSNKALPAPIEKTISKAKGQPREPQVYVLPPSREEMTKNQVSLLCLVKGFYPSDIAVEWESNGQPENRYMTWPPVLDSDGSFFLYSKLTVDKSRWQQGNVFSCSVMHEALHNHYTQKSLSLSPGK
B8: PD-L2(mut1)-Fc, T56V (Fc fusion)
chain 1: LFTVTVPKELYIIEHGSNVTLECNFDTGSHVNLGAIVASLQKVENDTSPHRERATLLEEQLPLGKASFHIPQVQVRDEGQYQCIIIYGVAWDYKYLTLKVKASYRKINTHILKVPETDEVELTCQATGYPLAEVSWPNVSVPANTSHSRTPEGLYQVTSVLRLKPPPGRNFSCVFWNTHVRELTLASIDLQSQMEPRTHPTDKTHTCPPCPAPEDEGGPSVFLFPPKPKDTLMISRTPEVTCVVVDVSHEDPEVKFNWYVDGVEVHNAKTKPREEQYNSTYRVVSVLTVLHQDWLNGKEYKCKVSNKALPAPIEKTISKAKGQPREPQVYVYPPSREEMTKNQVSLTCLVKGFYPSDIAVEWESNGQPENNYKTTPPVLDEDGSFALVSKLTVDKSRWQQGNVFSCSVMHEALHNHYTQKSLSLSPGK
chain 2: B8 chain 1 with D215K, E216K, Y332L, T347L, N371R, K373M, T375W, E381S, A386F, V388Y
B9: PD-L2(mut3)-Fc, Q60L (Fc fusion)
chain 1: B8 chain 1 with V37T, Q41L
chain 2: LFTVTVPKELYIIEHGSNVTLECNFDTGSHVNLGAITASLLKVENDTSPHRERATLLEEQLPLGKASFHIPQVQVRDEGQYQCIIIYGVAWDYKYLTLKVKASYRKINTHILKVPETDEVELTCQATGYPLAEVSWPNVSVPANTSHSRTPEGLYQVTSVLRLKPPPGRNFSCVFWNTHVRELTLASIDLQSQMEPRTHPTDKTHTCPPCPAPEKKGGPSVFLFPPKPKDTLMISRTPEVTCVVVDVSHEDPEVKFNWYVDGVEVHNAKTKPREEQYNSTYRVVSVLTVLHQDWLNGKEYKCKVSNKALPAPIEKTISKAKGQPREPQVYVLPPSREEMTKNQVSLLCLVKGFYPSDIAVEWESNGQPENRYMTWPPVLDSDGSFFLYSKLTVDKSRWQQGNVFSCSVMHEALHNHYTQKSLSLSPGK

Key:
[1] = target: T2, human PD-1 (human, UniProt Q15116 25-167, limits assumed); assay: Biacore and cell-based assays, calibrated by wildtype nivolumab binding affinity
T2 construct: also called hPD-1
T2 sequence (Q15116 25-167 limits assumed): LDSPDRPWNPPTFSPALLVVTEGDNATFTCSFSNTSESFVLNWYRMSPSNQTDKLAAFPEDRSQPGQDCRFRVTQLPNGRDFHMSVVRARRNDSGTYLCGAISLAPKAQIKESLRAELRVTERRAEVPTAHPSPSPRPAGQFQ

[2] = target: human PD-1 on cells (HEK-PD-1 reporter cells; activated PBMC) (human, UniProt Q15116 25-288); assay: cell-based or functional assay
Chain of human PD-1 on cells (HEK-PD-1 reporter cells; activated PBMC) (Q15116 25-288): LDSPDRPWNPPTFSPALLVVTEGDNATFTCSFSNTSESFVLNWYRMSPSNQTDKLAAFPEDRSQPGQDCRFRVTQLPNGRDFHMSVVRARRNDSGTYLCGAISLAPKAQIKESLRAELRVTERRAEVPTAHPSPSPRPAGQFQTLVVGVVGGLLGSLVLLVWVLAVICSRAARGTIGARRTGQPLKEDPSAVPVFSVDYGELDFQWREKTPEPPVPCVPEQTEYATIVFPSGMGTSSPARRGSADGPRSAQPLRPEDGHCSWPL

[3] = target: human IL-12 receptor complex (IL-12Rβ1 and IL-12Rβ2) (human, UniProt P42701 24-662; Q99665 24-862); assay: cell-based or functional assay
Chain of human IL-12 receptor complex (IL-12Rβ1 and IL-12Rβ2) (Q99665 24-862, chain 2 of 2, other chains not shown): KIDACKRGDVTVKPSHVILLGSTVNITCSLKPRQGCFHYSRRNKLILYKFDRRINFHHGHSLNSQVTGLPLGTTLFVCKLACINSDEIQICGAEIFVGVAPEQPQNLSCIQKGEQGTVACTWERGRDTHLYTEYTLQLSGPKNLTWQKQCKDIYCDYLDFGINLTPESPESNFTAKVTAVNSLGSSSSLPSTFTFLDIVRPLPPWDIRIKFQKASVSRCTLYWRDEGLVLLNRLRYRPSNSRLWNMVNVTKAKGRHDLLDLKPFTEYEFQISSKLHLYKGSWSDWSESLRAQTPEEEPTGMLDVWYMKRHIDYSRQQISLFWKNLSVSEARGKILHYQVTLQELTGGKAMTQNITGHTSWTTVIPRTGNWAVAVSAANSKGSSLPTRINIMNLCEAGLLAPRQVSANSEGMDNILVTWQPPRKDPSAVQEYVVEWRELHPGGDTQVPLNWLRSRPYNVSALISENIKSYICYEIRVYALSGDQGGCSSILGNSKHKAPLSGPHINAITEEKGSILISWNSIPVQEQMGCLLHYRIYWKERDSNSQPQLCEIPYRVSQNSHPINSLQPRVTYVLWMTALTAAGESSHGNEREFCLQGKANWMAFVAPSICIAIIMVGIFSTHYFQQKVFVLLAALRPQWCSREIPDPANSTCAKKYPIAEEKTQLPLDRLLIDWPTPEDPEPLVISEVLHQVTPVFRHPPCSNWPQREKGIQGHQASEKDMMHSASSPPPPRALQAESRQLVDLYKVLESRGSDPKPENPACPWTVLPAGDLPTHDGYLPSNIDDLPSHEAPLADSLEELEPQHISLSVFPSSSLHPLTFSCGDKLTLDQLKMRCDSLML

[4] = target: T2, human PD-1; assay: same value as Table 11 (measured on the antibody without IL-12)
[5] = target: T2, human PD-1; assay: PD-L2-Fc format, calibrated on PD-L2(wt)-Fc, method not stated
[6] = target: T1, mouse PD-1; assay: as above

| Binder | Kd [1] [nM] | IFN-γ release, activated PBMC [2] [ng/mL] | IL-12 signal transduction, HEK-IL-12-PD-1 (high) [2] [%] | IL-12 signal transduction, HEK-IL-12-PD-1 (low) [2] [%] | IL-12 signal transduction, HEK IL-12 [3] [%] | Kd [4] [nM] | Kd [5] [nM] | Kd [6] [nM] |
| --- | --- | --- | --- | --- | --- | --- | --- | --- |
| B1 | 2300 |  |  |  |  |  |  |  |
| B2 |  | 820 | 38 | 33 | < 0.2 | 25 |  |  |
| B3 |  | 34 | 5 | < 0.2 | < 0.2 | 2300 |  |  |
| B4 |  | 120 | 33 | 17 | < 0.2 | 130 |  |  |
| B5 |  | 69 | 10 | 3 | < 0.2 | 910 |  |  |
| B6 |  |  |  |  |  |  | 350 | 230 |
| B7 |  |  |  |  |  |  | 255 | 220 |
| B8 |  |  |  |  |  |  | 520 | 430 |
| B9 |  |  |  |  |  |  | 490 | 320 |
